Results on three proteins are retold here after paper PMC10638397, “Engineering sulfonate group donor regeneration systems to boost biosynthesis of sulfated compounds” (Nature Communications, 2023).

Substrate in series [1]: Nc1ncnc2c1ncn2[C@@H]1O[C@H](COP(=O)(O)OS(=O)(=O)O)[C@@H](OP(=O)(O)O)[C@H]1O
The series can be described thus: sulfotransferase kinetics, HPLC-MS. Conditions: sulfonate acceptor trehalose, Mg2+, pH 7.5, 35 °C (general assay). The class given is biochemical, Mycolicibacterium smegmatis.
Description: sulfotransferase kinetics, HPLC-MS on trehalose sulfotransferase (Stf0)

Substrate in series [2]: Nc1ncnc2c1ncn2[C@@H]1O[C@H](COP(=O)(O)OS(=O)(=O)O)[C@@H](OP(=O)(O)O)[C@H]1O
The series can be described thus: sulfotransferase kinetics, HPLC-MS. The class given is biochemical, Rattus norvegicus. The conditions noted are these: Mg2+, pH 7.5, 35 °C (general assay), acceptor not given. The text has this:
sulfotransferase kinetics, HPLC-MS on aryl sulfotransferase IV (AST IV)

Substrate in the series “purified protein”: Nc1ncnc2c1ncn2[C@@H]1O[C@H](COP(=O)(O)OS(=O)(=O)O)[C@@H](O)[C@H]1O
The series can be described thus: purified protein. Conditions: Mg2+, pH 7.5, 35 °C (general assay), acceptor not given.

Substrate in series [3]: Nc1ncnc2c1ncn2[C@@H]1O[C@H](COP(=O)(O)OS(=O)(=O)O)[C@@H](OP(=O)(O)O)[C@H]1O
Description: sulfotransferase kinetics, HPLC-MS. Type of series: biochemical, Mus musculus. Conditions: Mg2+, pH 7.5, 35 °C (general assay), acceptor not given.

B1: trehalose sulfotransferase (Stf0) (Mycolicibacterium smegmatis MC2 155) (protein)
chain: MSDHPTAYLVLASQRSGSTLLVESLRATGVAGEPQEFFQYLPNTSMSPQPREWFADVEDQSILRLLDPLIEGKPDLAPATIWRDYIQTVGRTPNGVWGGKLMWNQTPLLVQRAKDLPDRSGSGLLSAIRDVVGSDPVLIHIHRPDVVSQAVSFWRAVQTRVWRGRPDPVRDARAEYHAGAIAHVITMLRAQEEGWRAWFTEENVEPIDVDYPYLWRNLTEVVGTVLEALGQDPRLAPKPVLERQADQRSDEWVERYRRDAQRDGLPL
Consider B1, for which, in series [1], the Km came to 820 ± 60 µM, the kcat was 0.00988 ± 0.00025 s⁻¹ and the kcat/Km came out at 12.1 M⁻¹ s⁻¹.

B2: aryl sulfotransferase IV (AST IV) (Rattus norvegicus) (protein)
chain: MEFSRPPLVHVKGIPLIKYFAETIGPLQNFTAWPDDLLISTYPKSGTTWMSEILDMIYQGGKLEKCGRAPIYARVPFLEFKCPGVPSGLETLEETPAPRLLKTHLPLSLLPQSLLDQKVKVIYIARNAKDVVVSYYNFYNMAKLHPDPGTWDSFLENFMDGEVSYGSWYQHVKEWWELRHTHPVLYLFYEDIKENPKREIKKILEFLGRSLPEETVDSIVHHTSFKKMKENCMTNYTTIPTEIMDHNVSPFMRKGTTGDWKNTFTVAQNERFDAHYAKTMTDCDFKFRCEL
notes: recombinant in E. coli; N-terminal GST fusion printed for the whole-cell work
Take B2: in series [2], the Km was found to be 1430 ± 172 µM, the kcat turned out to be 0.0131 ± 0.000614 s⁻¹ and the kcat/Km is 9.19 M⁻¹ s⁻¹. In addition, in the series “purified protein”, the Km is 2450 ± 500 µM, the kcat turned out to be 0.00688 s⁻¹ and the kcat/Km worked out at 2.81 M⁻¹ s⁻¹.

B3: estrogen sulfotransferase (EST) (Mus musculus) (protein)
chain: METSMPEYYEVFGEFRGVLMDKRFTKYWEDVEMFLARPDDLVIATYPKSGTTWISEVVYMIYKEGDVEKCKEDAIFNRIPYLECRNEDLINGIKQLKEKESPRIVKTHLPPKLLPASFWEKNCKMIYLCRNAKDVAVSYYYFLLMITSYPNPKSFSEFVEKFMQGQVPYGSWYDHVKAWWEKSKNSRVLFMFYEDMKEDIRREVVKLIEFLERKPSAELVDRIIQHTSFQEMKNNPSTNYTMMPEEMMNQKVSPFMRKGIIGDWKNHFPEALRERFDEHYKQQMKDCTVKFRMEL
Consider B3, for which, in series [3], the Michaelis-Menten constant (Km) was determined as 1560 ± 260 µM, the kcat turned out to be 0.00849 ± 0.000572 s⁻¹ and the kcat/Km worked out at 5.44 M⁻¹ s⁻¹.
